The values that follow come from the Human Domainome abundance scans (Beltran et al. 2025).

± gives the uncertainty stated by the source.

First the molecules themselves.
B1: Zinc finger MYM-type protein 3, residues 589 to 668; numbered along this chain, Q14202 (parent)
chain: LSCHYCHSLFSGKPEVLDWQDQVFQFCCRDCCEDFKRLRGVVSQCEHCRQEKLLHEKLRFSGVEKSFCSEGCVLLYKQDF

The variants in the series derive from B1. Kind of series: abundance fitness (aPCA) (normalised: wild type 0, dead -1); higher = more abundant; growth selection in yeast, the domain comes from the species named. To be noted: Homo sapiens.
Turning to LSCHYCHSLFSGKPKVLDWQDQVFQFCCRDCCEDFKRLRGVVSQCEHCRQEKLLHEKLRFSGVEKSFCSEGCVLLYKQDF, the abundance fitness is -0.46 ± 0.078.

For the variant LSCHYCHSLFSGKPEFLDWQDQVFQFCCRDCCEDFKRLRGVVSQCEHCRQEKLLHEKLRFSGVEKSFCSEGCVLLYKQDF, the abundance fitness was -0.229 ± 0.12.

On to LSCHYCHSLFSGKPEVLDWQDQVFQFCCRDCCEDFKRLRGVVSQCEHCRQEKLLHRKLRFSGVEKSFCSEGCVLLYKQDF, for which the abundance fitness was -0.006 ± 0.084.

With LSCHYCHSLFSGKPEVLDWQDQVFQFCCRDCCEDFKRLRGVVSCCEHCRQEKLLHEKLRFSGVEKSFCSEGCVLLYKQDF, the abundance fitness stood at 0.397 ± 0.13.

Consider LSCHYCHSLFSGKPEVLDWQDQVFQFACRDCCEDFKRLRGVVSQCEHCRQEKLLHEKLRFSGVEKSFCSEGCVLLYKQDF, for which the abundance fitness was -0.673 ± 0.055.

For LSCHYCHSLFSGKPEVLDWQDQVFQFDCRDCCEDFKRLRGVVSQCEHCRQEKLLHEKLRFSGVEKSFCSEGCVLLYKQDF, the abundance fitness was -0.352 ± 0.078.

LSCHYCGSLFSGKPEVLDWQDQVFQFCCRDCCEDFKRLRGVVSQCEHCRQEKLLHEKLRFSGVEKSFCSEGCVLLYKQDF: the abundance fitness is 0.117 ± 0.043.

LSCHYCHSLFSGKPEVLDWQDQVFQFCCRDCCEDFKRLRGVVSQCEHCRQEKLLHEKLRFSVVEKSFCSEGCVLLYKQDF: the abundance fitness was -0.8 ± 0.33.

For LSCHYCHSLFSGKPEVLDWQDQWFQFCCRDCCEDFKRLRGVVSQCEHCRQEKLLHEKLRFSGVEKSFCSEGCVLLYKQDF, the abundance fitness came to 0.134 ± 0.044.

With LSCHYCHSLFSGKPEVLDWQDQVFQFCCRFCCEDFKRLRGVVSQCEHCRQEKLLHEKLRFSGVEKSFCSEGCVLLYKQDF, the abundance fitness was -0.263 ± 0.076.

Consider LSCHYCHSLFSGKPEVLDWQDQVFQFCCRDCCEDFKRLRGVVSQCEHCDQEKLLHEKLRFSGVEKSFCSEGCVLLYKQDF, for which the abundance fitness is -0.485 ± 0.46.

Consider LSCHYCHSLFSGKPEVLVWQDQVFQFCCRDCCEDFKRLRGVVSQCEHCRQEKLLHEKLRFSGVEKSFCSEGCVLLYKQDF, for which the abundance fitness is -0.073 ± 0.059.

With LSCHYCHSLFSGKPEVLDWQDQVFQFCCRDCCEDFKRLRGVVSQCEHCRQEKLLHEKLRFSGVEKSFCSEGTVLLYKQDF, the abundance fitness is -0.869 ± 0.22.

For the variant LSCHYCHSLFSGKPEVLDWQDQVFQFCCRDCCEDFKRLRGVVSQCEHCRQEKLLHEKLRFSGVEKSFCSEGPVLLYKQDF, the abundance fitness is -0.725 ± 0.39.

Turning to LSCHYCHSLFSGKPEVLDWQDQVFQFCCRDCCEDFKRLRGVVSQCEHCRQEKTLHEKLRFSGVEKSFCSEGCVLLYKQDF, the abundance fitness is -0.196 ± 0.27.

As for LSCHYCHSLFSGKPEVLDWQDQVFQFCCRDCCEDFKRLRGVVSQCEHCRQEKGLHEKLRFSGVEKSFCSEGCVLLYKQDF, the abundance fitness is -0.445 ± 0.089.

As for LSCHYCHSLFSGKPEVLDWQDQVFQFCYRDCCEDFKRLRGVVSQCEHCRQEKLLHEKLRFSGVEKSFCSEGCVLLYKQDF, the abundance fitness was -0.557 ± 0.15.

LSCHYCHSLFSGVPEVLDWQDQVFQFCCRDCCEDFKRLRGVVSQCEHCRQEKLLHEKLRFSGVEKSFCSEGCVLLYKQDF: the abundance fitness was -0.169 ± 0.047.

As for LSCHYCHSLFSGKIEVLDWQDQVFQFCCRDCCEDFKRLRGVVSQCEHCRQEKLLHEKLRFSGVEKSFCSEGCVLLYKQDF, the abundance fitness was -0.264 ± 0.097.

Regarding LSCHYCHSLFSGKSEVLDWQDQVFQFCCRDCCEDFKRLRGVVSQCEHCRQEKLLHEKLRFSGVEKSFCSEGCVLLYKQDF, the abundance fitness was -0.386 ± 0.056.

For the variant LSCHYCHSLFSGKPEVLDWQDQVFQFCCRDCCEDFKRLRGVVSQCEHCRQEKLLHEKLRFSGVEKSFCSEGCVHLYKQDF, the abundance fitness was found to be 0.041 ± 0.3.

LSCHYCHSLFSGKPEVLDWQDQVFQFCCRDCCEDFKRLRGVVSQCEHCRQEKLLHEKLRFSGVEKSFCSEGCVALYKQDF: the abundance fitness amounted to 0.404 ± 0.077.

With LSCHYCHSLFSGKPEVLDWQDQVFQFCCRDCCEDFKSLRGVVSQCEHCRQEKLLHEKLRFSGVEKSFCSEGCVLLYKQDF, the abundance fitness stood at 0.123 ± 0.091.

With LSCHYCHSLFSGKPEVLDWQDQVFQFCCRDCCEDFKRLRGVWSQCEHCRQEKLLHEKLRFSGVEKSFCSEGCVLLYKQDF, the abundance fitness is -0.01 ± 0.12.

Regarding LSCHYCHSLFSGKPEVLDWQDQVFQFCCRDCCEDFKRLRGVESQCEHCRQEKLLHEKLRFSGVEKSFCSEGCVLLYKQDF, the abundance fitness is -0.041 ± 0.12.

With LSCHYCHSLFSGKPEVLDWQDQVFQFCCRDQCEDFKRLRGVVSQCEHCRQEKLLHEKLRFSGVEKSFCSEGCVLLYKQDF, the abundance fitness was -0.668 ± 0.1.

With LSCHYCHSLFSGKPEVLDWQDQVFQFCCRDCCEDFKRLRGVVSQCEHCRCEKLLHEKLRFSGVEKSFCSEGCVLLYKQDF, the abundance fitness was -0.013 ± 0.24.

Turning to LSCHYCHSLFSGKPEVLDWNDQVFQFCCRDCCEDFKRLRGVVSQCEHCRQEKLLHEKLRFSGVEKSFCSEGCVLLYKQDF, the abundance fitness came out at 0.348 ± 0.063.

As for LSCHYCHSLFSGKPEVLDWQDQVFQFCCRDCCEDFKRLRGVVSQCEHCRQEKLLHEKLRFSGVEKSFCSEICVLLYKQDF, the abundance fitness came to 0.317 ± 0.42.

As for LSCHYCHSLFSGKPEVLDWQDQVFQFCCRDCCEDFKRLRGVVSQCEHCRQEKLLHEKLRFSGVEKSFCSEQCVLLYKQDF, the abundance fitness was found to be 0.378 ± 0.16.

Take LSCHYCHSLFSGKPEVLDWQDQVFQFCCRDCCEDFKRLRGVVSQCEHCRQEKLLHEKLRFSGVEKSFCSEDCVLLYKQDF: the abundance fitness was found to be 0.351 ± 0.28.

Regarding LSCHYCHSLFSGKPEVLDWQDQVFQNCCRDCCEDFKRLRGVVSQCEHCRQEKLLHEKLRFSGVEKSFCSEGCVLLYKQDF, the abundance fitness is -0.391 ± 0.1.

For the variant LSCHYCHSLFSGKPEVLDWQDQVFQFCCRDCCEDFKRLRGVVSQCEHCRQEKLLHEKLRFSGVEKLFCSEGCVLLYKQDF, the abundance fitness is 0.068 ± 0.12.

Regarding LSCHYCHSLFSGKPEVLDWQDQVQQFCCRDCCEDFKRLRGVVSQCEHCRQEKLLHEKLRFSGVEKSFCSEGCVLLYKQDF, the abundance fitness was -0.038 ± 0.046.

LSCHYCHSLRSGKPEVLDWQDQVFQFCCRDCCEDFKRLRGVVSQCEHCRQEKLLHEKLRFSGVEKSFCSEGCVLLYKQDF: the abundance fitness is -0.498 ± 0.05.
